Data reported in paper PMC4479986, “An Alternative Phosphorylation Switch in Integrin β2 (CD18) Tail for Dok1 Binding” (Scientific Reports, 2015).
Square brackets hold non-standard residues; d marks the D form. Ends that are not written are not given here. Peptide text beside a SMILES is read from it. pS = N[C@@H](COP(=O)(O)O)C(=O)O

Columns and labels:
Dok1 PTB domain = target: T1, Dok1 PTB domain (Homo sapiens, UniProt Q99704); assay: 15N-1H HSQC NMR chemical shift titration of Dok1 PTB domain with integrin β2 tail peptides; format: binding; settings: Table 2; 15N-1H HSQC combined chemical shift perturbation, 0.7 mM 15N-Dok1 PTB domain, 50 mM sodium phosphate pH 6.0, 100 mM NaCl, 2 mM DTT, 20 min equilibration; depletion model fit; Kd ± S.E.; read-out: Dissociation constant Kd
T1 construct: Human Dok1 PTB domain (Q154 – G256; Swiss-Prot Q99704, number as Q1-G103); six His-tag (N); made in house; host or cells: Escherichia coli Rosetta
T1 sequence (Q99704 154-256): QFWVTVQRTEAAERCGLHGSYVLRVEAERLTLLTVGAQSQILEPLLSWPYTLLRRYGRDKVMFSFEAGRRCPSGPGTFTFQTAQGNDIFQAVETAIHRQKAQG
Procedure: Human Dok1 PTB domain (Q154 – G256; Swiss-Prot Q99704, number as Q1-G103) was sub-cloned into the pET14b vector with an N-terminal six His-tag. Escherichia coli Rosetta cells were transformed with the expression plasmid and grown at 37 °C either in LB or M9 medium containing [^15N] ammonium chloride (Cambridge Isotope Laboratories). Expression of recombinant protein was induced by adding 1 mM IPTG to cells (OD600 0.6–0.7) followed by incubation for 6–12 h at 16 °C. Cells were centrifuged and re-suspended in Buffer A (20 mM Tris-HCl buffer, pH 8.0) followed by affinity purification on a Nickel-NTA column (Qiagen). […] Proteins were eluted at a flow rate of 0.5 ml/min and monitored by absorbance at λ = 276 nm.
All NMR experiments were performed on a Bruker DRX 600 MHz spectrometer equipped with an actively shielded cryoprobe. NMR data were processed using the NMRPipe and NMRDraw suite and analysed by Sparky (T.D. Goddard and D.G. Kneller, University of California, San Francisco). […] The stock solutions of the above mentioned peptides were prepared in the same buffer (100 mM NaCl, 2 mM DTT, 50 mM sodium phosphate, pH 6.0) used for the Dok1 PTB domain NMR experiments, ^15N-^1H HSQC spectra were recorded at different protein:peptide molar ratios (1:0.1, 1:0.2, 1:0.3, 1:0.5, 1:1, 1:1.5, 1:2, 1:2.5 and 1:3) for all of the above mentioned peptides except for the unphosphorylated KT15. […]

[1] = Solubility of β2 tail peptide as observed in NMR sample preparation; format: physicochemical; settings: at high concentrations, NMR buffer
[2] = target: T2, Human Dok1 PTB domain (Q154-G256) (human, UniProt Q99704 154-256); assay: NMR titration; 15N-1H HSQC of 15N-labelled Dok1 PTB domain at 0.7 mM, unlabelled peptide added (protein:peptide 1:0.1 to 1:3; KT15 1:0.5 to 1:6); 100 mM NaCl, 2 mM DTT, 50 mM sodium phosphate, pH 6.0; Kd from combined chemical shift changes, depletion model; apparent for KT15; settings: both partners purified
T2 construct: Docking protein 1 (Dok1; p62Dok), human, PTB domain Q154-G256 of Swiss-Prot Q99704. numbers count on: the construct, renumbered Q1-G103 (Q154 = Q1); pET14b vector; no removal of the His tag is described; Residue numbers of the PTB domain in the results (Arg54, Arg69 ...) count on Q1-G103; also called PTB domain of Dok1; source: E. coli Rosetta, purified (Nickel-NTA, gel filtration on Superdex …)
T2 sequence (looked up): T1 sequence (Q99704 154-256)

[3] = system: Dok1-CFP / integrin β2-YFP association in K562 cells; assay: YFP-photobleach FRET between Dok1-CFP and integrin β2-YFP in K562 cells; format: cell-based, human; settings: K562 stably expressing Dok1-CFP, transfected with integrin αL, β2-YFP and CCR5; RANTES 50 ng/ml, 10 min, 37 °C; 39 cells with, 60 without; p < 0.05
Procedure: K562 cells (ATCC, Manassas, VA) were cultured in RPMI1640 full-medium containing 10% (v/v) FBS and antibiotics. Cells (2 × 10^6) were transfected with integrin αL plasmid (9 μg), integrin β2-YFP plasmid (WT or mutant) (9 μg) and Dok1-CFP or CFP plasmid (12 μg) by electroporation using the Neon electroporation kit (Invitrogen) on a MP-100 pipette-type microporator (Invitrogen). YFP-photobleach FRET assay was performed essentially as described. Immunoblottings of transfected K562 lysates were performed using rabbit anti-GFP antibody (Life Technologies, Grand Island, NY), rabbit anti-Dok1 antibody (Abcam, Cambridge, MA) and HRP-conjugated goat anti-rabbit (Avansta, Menlo Park, CA) followed by ECL detection. To generate K562 cells stably expressing Dok1-CFP, cells were transfected with Dok1-CFP plasmid by electroporation followed by serial dilutions into 96-well cell culture microtitre plates to select for stable clones in the presence of antibiotic G418 (0.6 mg/ml). Clones expressing Dok1-CFP were screened by flow cytometry analyses and verified by immunoblotting with anti-GFP antibody (Life Technologies, Grand Island, NY). […] Samples were acquired and examined on a FACSCalibur flow cytometer and data analyzed using the Flowjo software (Tree Star Inc. Ashland, OR). […]

CC(C)C[C@H](NC(=O)[C@@H]1CCCN1C(=O)[C@H](CC(N)=O)NC(=O)[C@H](CC(=O)O)NC(=O)[C@H](CC(N)=O)NC(=O)[C@H](CC(N)=O)NC(=O)[C@H](Cc1c[nH]c2ccccc12)NC(=O)[C@H](CCC(N)=O)NC(=O)[C@H](CO)NC(=O)[C@@H](N)CCCCN)C(=O)N[C@@H](Cc1ccccc1)C(=O)N[C@@H](CCCCN)C(=O)N[C@@H](CO)C(=O)N[C@@H](C)C(=O)N[C@H](C(=O)O)[C@@H](C)O [KT15] (H-KSQWNNDNPLFKSAT-OH)
Kd (Dok1 PTB domain): 16000 ± 300 µM

CC(C)C[C@H](NC(=O)[C@@H]1CCCN1C(=O)[C@H](CC(N)=O)NC(=O)[C@H](CC(=O)O)NC(=O)[C@H](CC(N)=O)NC(=O)[C@H](CC(N)=O)NC(=O)[C@H](Cc1c[nH]c2ccccc12)NC(=O)[C@H](CCC(N)=O)NC(=O)[C@H](CO)NC(=O)[C@@H](N)CCCCN)C(=O)N[C@@H](Cc1ccccc1)C(=O)N[C@@H](CCCCN)C(=O)N[C@@H](COP(=O)(O)O)C(=O)N[C@@H](C)C(=O)N[C@H](C(=O)O)[C@@H](C)O [pSer756-KT15] (H-KSQWNNDNPLFK[pS]AT-OH)
Kd (Dok1 PTB domain): 189 ± 30 µM

KALIHLSDLREYRRFEKEKLKSQWNNDNPLFKSATTTVMNPKFAES [full-length unphosphorylated β2 tail, Synthetic full-length integrin β2 (CD18) cytoplasmic tail, residues 724-769]
Solubility in words [1]: limited solubility

KALIHLSDLREYRRFEKEKLK[pS]QWNNDNPLFKSATTTVMNPKFAES [Full-length integrin β2 tail peptide phosphorylated at Ser745]
Kd [2]: 215 µM

KALIHLSDLREYRRFEKEKLKSQWNNDNPLFK[pS]ATTTVMNPKFAES [Full-length integrin β2 tail peptide phosphorylated at Ser756]
Kd [2]: 98 µM

B1: KT18EE, integrin β2 tail fragment (K742-T759) with Ser745 and Ser756 substituted by Glu (peptide)
peptide: KLKEQWNNDNPLFKEATT
notes: also called Ser to Glu substituted KT18 peptide; Ser to Glu substituted β2 tail peptide; source: synthetic peptide, bought: GLBioChem, Shanghai (purity >95%)
Kd [2]: 8490 µM

B2: RANTES: Chemokine, ligand of CCR5, used to activate cells (Calbiochem) (protein, UniProt P13501 24-91, looked up)
C-C motif chemokine 5: SPYSSDTTPCCFAYIARPLPRAHIKEYFYTSGKCSNPAVVFVTRKNRQVCANPEKKWVREYINSLEMS
FRET signal Dok1-CFP / integrin β2-YFP compared with untreated cells [3]: significantly lower
